Test results from patent publication JP2020188737A.

Tests used:
[1] = target: ヒトFcγRIIIaを固定化した担体(分離剤)を詰めたカラム(FcR9_Fカラム、WO2018/150973号の実施例5に記載); assay: FcγRIIIa affinity chromatography (FcR9_F column), peak area share; antibody from 9-day jar fermenter batch culture with 1 mM L-glutamine
[2] = target: ヒトFcγRIIIaを固定化した担体(分離剤)を詰めたカラム(FcR9_Fカラム、WO2018/150973号の実施例5に記載); assay: FcγRIIIa affinity chromatography (FcR9_F column), peak area share; antibody from 9-day jar fermenter batch culture with 10 mM L-glutamine

- ピーク1(結合力が弱いピーク)の面積割合 [1]: 25%
- ピーク3(結合力が強いピーク)の面積割合 [1]: 36%
- ピーク1(結合力が弱いピーク)の面積割合 [2]: 42.3%
- ピーク3(結合力が強いピーク)の面積割合 [2]: 22.1%
B1: 抗インターロイキン6レセプター(IL−6R)抗体 (antibody, human IgG1, V domains shown)
VH: QVQLQESGPGLVRPSQTLSLTCTVSGYSITSDHAWSWVRQPPGRGLEWIGYISYSGITTYNPSLKSRVTMLRDTSKNQFSLRLSSVTAADTAVYYCARSLARTTAMDYWGQGSLVTVSS
VL: DIQMTQSPSSLSASVGDRVTITCRASQDISSYLNWYQQKPGKAPKLLIYYTSRLHSGVPSRFSGSGSGTDFTFTISSLQPEDIATYYCQQGNTLPYTFGQGTKVEIK
